The target in assay [1] is T1, adenovirus type 13 vector particles (human adenovirus type 13). In words: SPR; electrostatic (fast) component of one-to-two model. For orientation: Surface plasmon resonance follows binding to a sensor surface in real time, without labels.
Assay [2] addresses T2, adenovirus type 11 vector particles (human adenovirus type 11). The description is as above.
For assay [3], the target named is T1, adenovirus type 13 vector particles. The assay can be described thus: SPR; hydrophobic (slow) component of one-to-two model.
Assay [4] concerns the target T2, adenovirus type 11 vector particles. Described as above.
Assay [5] concerns the target T3, adenovirus type 5 vector particles (wild-type capsid) (human adenovirus type 5). The description is as above.
In assay [6] the target is T3, adenovirus type 5 vector particles …. Described as above. This is another data set of the same source.
For assay [7] the target is unchanged. The assay can be described thus: SPR; electrostatic (fast) component of one-to-two model.

The term Kd denotes the free concentration of one partner at which half of the binding sites on the other are occupied at equilibrium, for simple one-to-one binding. The low end stands for a tighter complex, the high end for a looser complex. As usually defined, the koff is a measure of how fast the partners let go of each other. High values mean fast dissociation, low ones slow dissociation.

B1: human platelet factor 4 (natural protein)
chain: EAEEDGDLQCLCVKTTSQVRPRHITSLEVIKAGPHCPTAQLIATLKNGRKICLDLQAPLYKKIIKKLLES
On to B1, for which the Kd in assay [1] was 774 nM; in assay [2], 742 nM; in assay [3] it was 12.9 nM; in assay [4], 13.4 nM. For the same molecule, the koff in assay [1] was determined as 0.00761 s⁻¹; in assay [2], 0.00879 s⁻¹; in assay [3], 0.000363 s⁻¹; in assay [4], 0.000482 s⁻¹.

B2: human platelet factor 4 (natural protein)
chain: B1 chain
modifications: wild-type capsid; copies by convention for the Ad5 virion; hexon is the PF4-binding protein; internal proteins IIIa, VI and VIII left out; Y477 is the fiber residue of the paper (AAQ19310.1)
B2 yielded a Kd in assay [5] of 24.4 nM. The results for the off-rate constant (koff) in assay [6] and in assay [7] were 0.00083 s⁻¹ and 0.0124 s⁻¹, respectively.

The record behind these values is article PMC12775996 (2025).
